According to paper PMC2213500 (The Journal of Experimental Medicine, 2000):

Key:
[1] = target: fluorescein-labelled HA_(Anchorless) peptide (influenza virus); assay: dissociation kinetics of fluorescent peptide-MHC complexes
[2] = target: Cys-HA_(Anchorless) peptide, unlabelled (influenza virus); assay: SPR
[3] = target: influenza virus hemagglutinin peptide HA_(305–318), unlabelled (influenza virus); assay: SPR

| Substance | t1/2 of dissociation [1] | dissociation rate in the presence of DM [2] | rate of binding to the peptide surface in the absence of DM [2] | t1/2 in the presence of DM [2] | t1/2 of dissociation [2] | dissociation rate in the presence of DM [3] | t1/2 in the presence of DM [3] |
| --- | --- | --- | --- | --- | --- | --- | --- |
| soluble mutant HLA-DR1 with β86 glycine changed to tyrosine (from UniProt P01903) (complex) | 1.8 h | 8.5e-05 s⁻¹ | 0.119 s⁻¹ | 2.25 h | 3.4 h | – | – |
| soluble wild-type HLA-DR1 (empty, no added peptide) (from UniProt P01903) (complex) | 1.8 h | 0.0038 s⁻¹ | 0.035 s⁻¹ | 0.05 h | – | 5.6e-07 s⁻¹ | 344 h |
